Source: patent publication US20110039780A1 (Pfizer, published 2011)
Substitutions are numbered along the chain they refer to. Names and notes keep the numbering of the source.

Assays:
α-thrombin [1] = target: T1, α-thrombin (UniProt P00734 328-363; P00734 364-622); experiment: Biacore assay
Method: (§1) The binding abilities of GPIbα-290/2V-Ig and GPIbα-290-2V/FFF-Ig to vWF and a-thrombin were evaluated in vitro using a Biacore assay.

[2] = target: T2, intact von Willebrand factor (UniProt P04275 764-2813, limits assumed); experiment: SPR (BiaCore); non-sulfated isoform
T2 construct: also called vWF; intact vWF

[3] = target: T2, intact von Willebrand factor; experiment: SPR (BiaCore); 0 sulfated (unsulfated)
vWF A1 domain [4] = target: T3, vWF A1 domain (UniProt P04275 1261-1468, limits assumed); experiment: Biacore assay
T3 construct: domain: A1; also called vWF A1 fragment
Method: as §1

vWF A1 domain [5] = target: T3, vWF A1 domain; experiment: binding constant; method not stated in Example 3
[6] = target: T2, intact von Willebrand factor; experiment: binding constant; method not stated in Example 3
vWF A1 domain [7] = target: T3, vWF A1 domain; experiment: Biacore assay; remark: listed apart in the source
α-thrombin [8] = target: T1, α-thrombin; experiment: SPR (BiaCore)
[9] = target: T2, intact von Willebrand factor; experiment: SPR (BiaCore); 6 sulfated (fully sulfated)
[10] = target: T2, intact von Willebrand factor; experiment: SPR (BiaCore); fully sulfated isoform

B1: GPIbα-IgG1Fc fusion protein with a wild-type human GPIbα sequence (Fc fusion)
chain: HPICEVSKVASHLEVNCDKRNLTALPPDLPKDTTILHLSENLLYTFSLATLMPYTRLTQLNLDRCELTKLQVDGTLPVLGTLDLSHNQLQSLPLLGQTLPALTVLDVSFNRLTSLPLGALRGLGELQELYLKGNELKTLPPGLLTPTPKLEKLSLANNNLTELPAGLLNGLENLDTLLLQENSLYTIPKGFFGSHLLPFAFLHGNPWLCNCEILYFRRWLQDNAENVYVWKQGVDVKAMTSNVASVQCDNSDKFPVYKYPGKGCPTLGDEGDTDLYDYYPEEDTEGDKVR
modifications: tyrosines 276, 278, 279 can be sulfated; sulfation state of the tested material not stated
notes: Made in CHO cells; dimerized forms were isolated; also called WT; GPIb-Ig WT; not shown: IgG1 Fc
Kd (α-thrombin [1]): 760 nM

B2: GPIbα-IgG1Fc fusion protein 2V (G233V M239V), non-sulfated isoform (Fc fusion)
chain: B1 chain with G233V, M239V
modifications: tyrosines 276, 278, 279 not sulfated (sulfation state 0)
notes: also called 2V 0 sulfated; GP Ib-Ig2V unsulfated isoform; not shown: IgG1 Fc
Kd [2]: 12 nM
Kd [3]: 3.4 to 15 nM

B3: GPIb-290/2V-Ig (N-terminal 290 amino acids of GPIbα with G233V M239V fused to a human IgG1 Fc domain) (Fc fusion)
chain: B1 chain with G233V, M239V
modifications: sulfated tyrosines at 276, 278, 279 (extent not stated)
notes: also called GPIb2V-Ig; GP Ib-Ig2V; not shown: human IgG1 Fc domain
Kd (vWF A1 domain [4]): 5 nM
Kd (α-thrombin [1]): 630 nM
Ka (vWF A1 domain [5]): 1.9e+08 M⁻¹
Ka [6]: 5.6e+08 M⁻¹

B4: GPIbα fusion protein variant 3V/C65S (Fc fusion, not shown: large carriers)
chain: B1 chain with C65S, G233V, K237V, M239V
notes: also called 3V/C-S
Ka (vWF A1 domain [5]): 1.5e+09 M⁻¹
Ka [6]: 1.7e+09 M⁻¹

B5: GPIb-290/2V/FFF-Ig (GPIb-290/2V-Ig with Tyr-276, 278, 279 changed to phenylalanine) (Fc fusion)
chain: B1 chain with G233V, M239V, Y276F, Y278F, Y279F
notes: Non-sulfated chimera; also called GPIbα-290/2V/FFF-Ig; GPIbα-290-2V/FFF-Ig; not shown: human IgG1 Fc domain
fold decrease in binding against GPIb-290/2V-Ig (vWF A1 domain [7]): ~3 fold
Kd (vWF A1 domain [4]): 15.4 nM
Kd (α-thrombin [1]): 35800 nM
Ka (vWF A1 domain [5]): 9.1e+07 M⁻¹
Ka [6]: 2.4e+08 M⁻¹

B6: GPIbα-IgG1Fc fusion protein 1V (M239V), fully sulfated isoform (Fc fusion)
chain: B1 chain with M239V
modifications: sulfotyrosine at 276, 278 and 279 (fully sulfated: sulfation state 6 per dimer)
notes: also called 1V 6 sulfated; GP Ibα-Ig239V fully sulfated isoform; not shown: IgG1 Fc
fold higher binding affinity than the unsulfated isoform (α-thrombin [8]): ~80 fold
Kd [9]: 113 to 521 nM
Kd [10]: 119 nM

B7: GPIbα-IgG1Fc fusion protein 1V (M239V), non-sulfated isoform (Fc fusion)
chain: B1 chain with M239V
modifications: tyrosines 276, 278, 279 not sulfated (sulfation state 0)
notes: also called 1V 0 sulfated; GP Ibα-Ig239V unsulfated isoform; not shown: IgG1 Fc
Kd [2]: 284 nM
Kd [3]: 113 to 521 nM

B8: GPIbα-IgG1Fc fusion protein 2V (G233V M239V), fully sulfated isoform (Fc fusion)
chain: B1 chain with G233V, M239V
modifications: sulfotyrosine at 276, 278 and 279 (fully sulfated: sulfation state 6 per dimer)
notes: also called 2V 6 sulfated; GP Ib-Ig2V fully sulfated isoform; not shown: IgG1 Fc
fold higher binding affinity than the unsulfated isoform (α-thrombin [8]): ~80 fold
Kd [9]: 3.4 to 15 nM
Kd [10]: 4 nM

B9: GPIbα fusion protein variant 3V (G233V K237V M239V) (Fc fusion, not shown: large carriers)
chain: B1 chain with G233V, K237V, M239V
Ka (vWF A1 domain [5]): 1.5e+09 M⁻¹
Ka [6]: 1.7e+09 M⁻¹

B10: GPIbα-IgG1Fc fusion protein with the M239V (1V) substitution (Fc fusion)
chain: B1 chain with M239V
modifications: tyrosines 276, 278, 279 can be sulfated; sulfation state not stated
notes: also called GP Ibα-Ig239V; not shown: IgG1 Fc
Ka [6]: 7.7e+07 M⁻¹
